± gives the standard error. Fewer inactive variants are shown than the library holds.
B1: glmS ribozyme (parent)
chain: AUAAAAGCGCCAGAACUACAGAAAUGUAGUUGACGAGGAGGAGGUUUAUCGAAUUUUCGGCGGAUGCCUCCAAA

Columns and labels:
Settings in all cases: with glucosamine-6-phosphate
glucosamine-6-phosphate [1] = variants of: B1; experiment: self-cleavage kobs at 40 uM GlcN6P; higher = faster cleavage; RNA array
In short: (§1)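 E. coli RNA polymerase transcribed barcoded ribozyme variants in situ on sequenced MiSeq chips, which were tracked via a hybridised Cy3 probe at 37 °C. Tiles were imaged over ~14 h after glucosamine-6-phosphate (40 μM to 10 mM) in HEPES/KCl/Mg(OAc)2 buffer was flowed in. Normalised per-tile medians were fit to one- or two-exponential decays for kobs, and kcat and KM came from weighted Michaelis–Menten fits.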

glucosamine-6-phosphate [2] = variants of: B1; experiment: self-cleavage kobs at 2500 uM GlcN6P; higher = faster cleavage; RNA array
In short: as §1

glucosamine-6-phosphate [3] = variants of: B1; experiment: self-cleavage kobs at 10000 uM GlcN6P; higher = faster cleavage; RNA array
In short: as §1

glucosamine-6-phosphate [4] = variants of: B1; experiment: self-cleavage kobs at 160 uM GlcN6P; higher = faster cleavage; RNA array
In short: as §1

glucosamine-6-phosphate [5] = variants of: B1; experiment: self-cleavage kobs at 640 uM GlcN6P; higher = faster cleavage; RNA array
In short: as §1

Variant | self-cleavage kobs at 40 uM GlcN6P (glucosamine-6-phosphate [1]) [s⁻¹] | self-cleavage kobs at 2500 uM GlcN6P (glucosamine-6-phosphate [2]) [s⁻¹] | self-cleavage kobs at 10000 uM GlcN6P (glucosamine-6-phosphate [3]) [s⁻¹] | self-cleavage kobs at 160 uM GlcN6P (glucosamine-6-phosphate [4]) [s⁻¹] | self-cleavage kobs at 640 uM GlcN6P (glucosamine-6-phosphate [5]) [s⁻¹]
U30C U47C C58A U65A | < 1e-05 | – | – | – | –
G44U U45C G63A | < 1e-05 | – | – | – | –
A6G G29C G51A | < 1e-05 | < 1e-05 | < 1e-05 | – | –
U47A U55G | 0.000473 ± 8.1e-05 | 0.0105 ± 0.0022 | 0.0152 ± 0.0031 | 0.000805 ± 0.00018 | 0.00869 ± 0.0018
C10G A14C C70U | < 1e-05 | – | – | – | –
A53U U54G C71A | 9.49e-05 ± 2.8e-05 | – | 0.00478 ± 0.0013 | – | –
G38U U69G | 0.000121 ± 1.9e-05 | 7.1e-05 ± 1.6e-05 | 4.47e-05 ± 9.9e-06 | – | 9.8e-05 ± 4.7e-05
A48U C50U A52C G63C C71U | < 1e-05 | – | – | – | –
A12U U47G | 0.000706 ± 0.0001 | 0.0123 ± 0.0039 | 0.0118 ± 0.002 | – | –
G32C C34U | < 1e-05 | < 1e-05 | < 1e-05 | < 1e-05 | < 1e-05
G43U G44A | < 1e-05 | < 1e-05 | < 1e-05 | < 1e-05 | < 1e-05
G7A A12G U47A | < 1e-05 | < 1e-05 | – | – | –
A6G G60A G62C | < 1e-05 | – | – | – | –
G41C U45G U57C G59A C61U | < 1e-05 | < 1e-05 | – | – | < 1e-05
A36U C50G U69C | 0.000561 ± 0.00011 | – | 0.000905 ± 0.00017 | – | –
G35C C71G | < 1e-05 | – | – | < 1e-05 | < 1e-05
G43U U49A G60A C68U | < 1e-05 | – | < 1e-05 | – | –
C11U A12U C34A G66C | < 1e-05 | < 1e-05 | < 1e-05 | – | < 1e-05
C8U A14G G37A A39U G40U U47A C58G U65G C70U | < 1e-05 | < 1e-05 | – | – | –
G9U A39U | < 1e-05 | – | – | – | –
C10U C11A A39C A42U U47C G66C | < 1e-05 | – | – | – | –
G7C G37U U47C G59U G66U C70U | < 1e-05 | – | < 1e-05 | < 1e-05 | –
G7C A33U A48U | < 1e-05 | – | – | – | –
A33G U45A C50G U54G G60A C67A | 0.000354 ± 9.5e-05 | – | 0.000164 ± 5.5e-05 | – | –
C8U C16U U46A G63A | < 1e-05 | – | < 1e-05 | – | –

Variant | self-cleavage kobs at 40 uM GlcN6P (glucosamine-6-phosphate [1]) [s⁻¹] | self-cleavage kobs at 2500 uM GlcN6P (glucosamine-6-phosphate [2]) [s⁻¹] | self-cleavage kobs at 10000 uM GlcN6P (glucosamine-6-phosphate [3]) [s⁻¹] | self-cleavage kobs at 160 uM GlcN6P (glucosamine-6-phosphate [4]) [s⁻¹] | self-cleavage kobs at 640 uM GlcN6P (glucosamine-6-phosphate [5]) [s⁻¹]
C68A | < 1e-05 | 0.000102 ± 4.6e-05 | 0.000447 ± 7.5e-05 | 5.51e-05 ± 1.8e-05 | 0.000539 ± 0.00015
G7C C16A | < 1e-05 | < 1e-05 | < 1e-05 | < 1e-05 | < 1e-05
C8A U57A G63A | < 1e-05 | < 1e-05 | – | – | –
G9A C10G G13U A48U G51U G66C | < 1e-05 | – | – | – | –
A15G G29U U56G G63A | < 1e-05 | – | – | – | –
G9U A36U | < 1e-05 | – | < 1e-05 | – | < 1e-05
A6G G40U A48C G62A U65G | < 1e-05 | – | < 1e-05 | – | –
A6U C8A | < 1e-05 | < 1e-05 | < 1e-05 | < 1e-05 | –
C11U U47A A52C | < 1e-05 | – | – | – | –
G7U G62U | < 1e-05 | < 1e-05 | – | < 1e-05 | < 1e-05
G43A G51U G63C A64G | < 1e-05 | < 1e-05 | – | – | < 1e-05
G7U G35U A39U | < 1e-05 | – | – | – | –
U30G A48C C70G | < 1e-05 | – | – | – | –
U49G U57A | < 1e-05 | – | – | – | < 1e-05
G35C G41U G51C | < 1e-05 | < 1e-05 | – | – | –
G59C | < 1e-05 | – | < 1e-05 | < 1e-05 | < 1e-05
G40A U69A | < 1e-05 | < 1e-05 | < 1e-05 | – | < 1e-05
U55G C71G | 7.4e-05 ± 1.7e-05 | 0.000704 ± 0.00019 | 0.00121 ± 0.00035 | – | –
U46G G51C C67G | < 1e-05 | – | – | – | –
G32C G40A C50U C68A | < 1e-05 | – | < 1e-05 | – | –
G13U C50G C61G G62A U65G C68U | 9.2e-05 ± 3.1e-05 | – | 3.93e-05 ± 1.7e-05 | – | –
G7C C10A G29U A64C | < 1e-05 | < 1e-05 | < 1e-05 | – | –
G13C U49G G60U C70G | < 1e-05 | – | – | – | –
G35A G59C | < 1e-05 | < 1e-05 | < 1e-05 | < 1e-05 | < 1e-05
U30A A52C | < 1e-05 | < 1e-05 | < 1e-05 | < 1e-05 | < 1e-05

Reference: the supplement of paper PMC7125110
